Measurements taken from patent US20210017269A1.

Assays:
[1] = target: human complement component C1q (human) (UniProt P02745); assay: ProteOn XPR36 SPR, antibody immobilised, C1q as analyte, equilibrium model
[2] = target: human Fc gamma receptors (FcγR) (human); assay: ProteOn XPR36 SPR, His-tagged receptors captured, antibody as analyte, 25 °C, equilibrium model

Chain of human complement component C1q (human) (P02745 23-245 limits assumed, chain 1 of 3): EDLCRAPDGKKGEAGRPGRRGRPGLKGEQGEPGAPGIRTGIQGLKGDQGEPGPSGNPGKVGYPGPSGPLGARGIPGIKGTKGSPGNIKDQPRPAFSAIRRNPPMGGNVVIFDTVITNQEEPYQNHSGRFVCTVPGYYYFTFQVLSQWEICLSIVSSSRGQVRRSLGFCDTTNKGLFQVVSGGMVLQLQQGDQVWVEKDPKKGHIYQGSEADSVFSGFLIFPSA
Chain of human complement component C1q (human) (P02746 28-253 limits assumed, chain 2 of 3, further chain): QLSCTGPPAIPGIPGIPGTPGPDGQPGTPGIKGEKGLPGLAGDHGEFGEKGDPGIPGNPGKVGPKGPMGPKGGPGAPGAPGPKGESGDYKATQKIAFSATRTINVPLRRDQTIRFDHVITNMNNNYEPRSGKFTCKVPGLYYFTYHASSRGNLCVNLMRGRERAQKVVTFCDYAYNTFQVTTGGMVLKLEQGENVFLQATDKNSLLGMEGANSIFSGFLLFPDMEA
Chain of human complement component C1q (human) (P02747 29-245 limits assumed, chain 3 of 3, further chain): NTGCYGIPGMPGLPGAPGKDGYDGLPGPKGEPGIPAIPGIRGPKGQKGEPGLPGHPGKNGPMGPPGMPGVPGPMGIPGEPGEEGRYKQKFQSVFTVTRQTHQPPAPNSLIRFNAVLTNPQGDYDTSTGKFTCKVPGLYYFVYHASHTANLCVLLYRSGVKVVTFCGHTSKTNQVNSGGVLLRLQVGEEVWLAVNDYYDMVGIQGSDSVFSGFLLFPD

Row | Substance | Kd [1] | fold lower affinity than the human IgG1 wild type control [2]
1 | IgG1 wildtype isotype control (antibody) | 0.465 µM | –
2 | YTE containing control antibody | – | 1.5 fold
